Consider 19 molecules from patent US20260209386A1 (MYTHIC THERAPEUTICS, published 2026).

The target in the assay is T1, Human PTK7/CCK4 Protein, His Tag, Acro Biosystems PT7-H52H3 (human, UniProt Q13308 31-704).
T1 construct: bought protein; also called Human PTK7 Protein, His Tag, Acro Biosystems; not shown: His tag
T1 sequence: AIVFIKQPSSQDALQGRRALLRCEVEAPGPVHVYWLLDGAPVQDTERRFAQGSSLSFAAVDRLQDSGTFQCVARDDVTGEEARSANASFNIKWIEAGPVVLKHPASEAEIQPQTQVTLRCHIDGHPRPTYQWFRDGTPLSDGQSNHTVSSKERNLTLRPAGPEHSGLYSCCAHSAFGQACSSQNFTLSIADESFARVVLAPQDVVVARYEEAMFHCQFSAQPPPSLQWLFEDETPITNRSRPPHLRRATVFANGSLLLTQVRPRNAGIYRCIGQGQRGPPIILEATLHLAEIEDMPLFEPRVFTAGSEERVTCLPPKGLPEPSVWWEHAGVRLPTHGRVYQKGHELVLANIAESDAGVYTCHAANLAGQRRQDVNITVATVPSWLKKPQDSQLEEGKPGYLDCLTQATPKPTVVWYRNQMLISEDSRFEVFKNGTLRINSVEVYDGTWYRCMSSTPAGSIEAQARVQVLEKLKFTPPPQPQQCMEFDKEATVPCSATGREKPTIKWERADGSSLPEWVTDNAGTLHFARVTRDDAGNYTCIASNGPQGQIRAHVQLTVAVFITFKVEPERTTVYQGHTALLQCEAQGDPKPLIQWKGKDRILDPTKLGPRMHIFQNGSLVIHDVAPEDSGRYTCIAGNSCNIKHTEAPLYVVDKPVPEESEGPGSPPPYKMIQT
As to the kind of experiment: BLI, antibody on anti-human Fc sensor, 50 nM PTK7. For orientation: BLI is a label-free optical method that tracks binding on a fibre tip over time.

B1: MYT10951 (antibody, V domains shown)
VH: EVQLVESGGGLVQPGGSLRLSCTASHFSLSSYAMGWVRQAPGKGLEWVGFINAGGNTYYANWAKGRFTISRDTSKNTVYLQMNSLRAEDTAVYFCARRYSRASGWYDLWGQGTLVTVSS
VL: EIVMTQSPSTLSASVGDRVIITCQASQSISSYLAWYQQKPGKAPKLLIYAASTLASGVPSRFSGSGSGAEFTLTISSLQPDDFATYYCQSYSYSSGIDYGDVFGQGTKLTVL
notes: IgG
On to B1, for which the binding result is “binds”.

B2: MYT10959 (antibody, V domains shown)
VH: EVQLVESGGGLVQPGGSLRLSCTASGFSLSSYAHGWVRQAPGKGLEWVGFINAGGNTYYANWAKGRFTISRDTSKNTVYLQMNSLRAEDTAVYFCARRYSRASGWYDLWGQGTLVTVSS
VL: EIVMTQSPSTLSASVGDRVIITCQASQSISSYLAWYQQKPGKAPKLLIYAASTLASGVPSRFSGSGSGAEFTLTISSLQPDDFATYYCQSYSYSSGIDYGDVFGQGTKLTVL
notes: IgG
As for B2, the binding result is “binds”.

B3: MYT10974 (antibody, V domains shown)
VH: EVQLVESGGGLVQPGGSLRLSCTASGFSLSSYAMGWVRQAPGKGLEWVGFINAGGNTYYANWHKGRFTISRDTSKNTVYLQMNSLRAEDTAVYFCARRYSRASGWYDLWGQGTLVTVSS
VL: EIVMTQSPSTLSASVGDRVIITCQASQSISSYLAWYQQKPGKAPKLLIYAASTLASGVPSRFSGSGSGAEFTLTISSLQPDDFATYYCQSYSYSSGIDYGDVFGQGTKLTVL
notes: IgG
In the case of B3, the binding result was “binds”.

B4: MYT10978 (antibody, V domains shown)
VH: EVQLVESGGGLVQPGGSLRLSCTASGFSLSSYAMGWVRQAPGKGLEWVGFINAGGNTYYANWAKGRFTISRDTSKNTVYLQMNSLRAEDTAVYFCAHRYSRASGWYDLWGQGTLVTVSS
VL: EIVMTQSPSTLSASVGDRVIITCQASQSISSYLAWYQQKPGKAPKLLIYAASTLASGVPSRFSGSGSGAEFTLTISSLQPDDFATYYCQSYSYSSGIDYGDVFGQGTKLTVL
notes: IgG
In the case of B4, the binding result is given as “binds”.

B5: MYT10980 (antibody, V domains shown)
VH: EVQLVESGGGLVQPGGSLRLSCTASGFSLSSYAMGWVRQAPGKGLEWVGFINAGGNTYYANWAKGRFTISRDTSKNTVYLQMNSLRAEDTAVYFCARRHSRASGWYDLWGQGTLVTVSS
VL: EIVMTQSPSTLSASVGDRVIITCQASQSISSYLAWYQQKPGKAPKLLIYAASTLASGVPSRFSGSGSGAEFTLTISSLQPDDFATYYCQSYSYSSGIDYGDVFGQGTKLTVL
notes: IgG
For the molecule B5, the binding result is “binds”.

B6: MYT10966 (antibody, V domains shown)
VH: EVQLVESGGGLVQPGGSLRLSCTASGFSLSSYAMGWVRQAPGKGLEWVGFINAGHNTYYANWAKGRFTISRDTSKNTVYLQMNSLRAEDTAVYFCARRYSRASGWYDLWGQGTLVTVSS
VL: EIVMTQSPSTLSASVGDRVIITCQASQSISSYLAWYQQKPGKAPKLLIYAASTLASGVPSRFSGSGSGAEFTLTISSLQPDDFATYYCQSYSYSSGIDYGDVFGQGTKLTVL
notes: IgG
With B6, the binding result is “binds”.

B7: MYT10970 (antibody, V domains shown)
VH: EVQLVESGGGLVQPGGSLRLSCTASGFSLSSYAMGWVRQAPGKGLEWVGFINAGGNTYHANWAKGRFTISRDTSKNTVYLQMNSLRAEDTAVYFCARRYSRASGWYDLWGQGTLVTVSS
VL: EIVMTQSPSTLSASVGDRVIITCQASQSISSYLAWYQQKPGKAPKLLIYAASTLASGVPSRFSGSGSGAEFTLTISSLQPDDFATYYCQSYSYSSGIDYGDVFGQGTKLTVL
notes: IgG
With B7, the binding result is listed as “binds”.

B8: MYT10963 (antibody, V domains shown)
VH: EVQLVESGGGLVQPGGSLRLSCTASGFSLSSYAMGWVRQAPGKGLEWVGFIHAGGNTYYANWAKGRFTISRDTSKNTVYLQMNSLRAEDTAVYFCARRYSRASGWYDLWGQGTLVTVSS
VL: EIVMTQSPSTLSASVGDRVIITCQASQSISSYLAWYQQKPGKAPKLLIYAASTLASGVPSRFSGSGSGAEFTLTISSLQPDDFATYYCQSYSYSSGIDYGDVFGQGTKLTVL
notes: IgG
As for B8, the binding result was “binds”.

B9: MYT10962 (antibody, V domains shown)
VH: EVQLVESGGGLVQPGGSLRLSCTASGFSLSSYAMGWVRQAPGKGLEWVGFHNAGGNTYYANWAKGRFTISRDTSKNTVYLQMNSLRAEDTAVYFCARRYSRASGWYDLWGQGTLVTVSS
VL: EIVMTQSPSTLSASVGDRVIITCQASQSISSYLAWYQQKPGKAPKLLIYAASTLASGVPSRFSGSGSGAEFTLTISSLQPDDFATYYCQSYSYSSGIDYGDVFGQGTKLTVL
notes: IgG
For the molecule B9, the binding result is listed as “binds”.

B10: MYT10969 (antibody, V domains shown)
VH: EVQLVESGGGLVQPGGSLRLSCTASGFSLSSYAMGWVRQAPGKGLEWVGFINAGGNTHYANWAKGRFTISRDTSKNTVYLQMNSLRAEDTAVYFCARRYSRASGWYDLWGQGTLVTVSS
VL: EIVMTQSPSTLSASVGDRVIITCQASQSISSYLAWYQQKPGKAPKLLIYAASTLASGVPSRFSGSGSGAEFTLTISSLQPDDFATYYCQSYSYSSGIDYGDVFGQGTKLTVL
notes: IgG
B10: the binding result is reported as “binds”.

B11: MYT10993 (antibody, V domains shown)
VH: EVQLVESGGGLVQPGGSLRLSCTASGFSLSSYAMGWVRQAPGKGLEWVGFINAGGNTYYANWAKGRFTISRDTSKNTVYLQMNSLRAEDTAVYFCARRYSRASGWYDLWGQGTLVTVSS
VL: EIVMTQSPSTLSASVGDRVIITCQHSQSISSYLAWYQQKPGKAPKLLIYAASTLASGVPSRFSGSGSGAEFTLTISSLQPDDFATYYCQSYSYSSGIDYGDVFGQGTKLTVL
notes: IgG
With B11, the binding result is “binds”.

B12: MYT10957 (antibody, V domains shown)
VH: EVQLVESGGGLVQPGGSLRLSCTASGFSLSSHAMGWVRQAPGKGLEWVGFINAGGNTYYANWAKGRFTISRDTSKNTVYLQMNSLRAEDTAVYFCARRYSRASGWYDLWGQGTLVTVSS
VL: EIVMTQSPSTLSASVGDRVIITCQASQSISSYLAWYQQKPGKAPKLLIYAASTLASGVPSRFSGSGSGAEFTLTISSLQPDDFATYYCQSYSYSSGIDYGDVFGQGTKLTVL
notes: IgG
Regarding B12, the binding result is given as “binds”.

B13: MYT10937 (antibody, V domains shown)
VH: EVQLVESGGGLVQPGGSLRLSCTASGFSLSNYVMNWVRQAPGKGLEWVGIIDSSGSTYYASWAKGRFTISRDTSKNTVYLQMNSLRAEDTAVYFCARGLYLWGQGTLVTVSS
VL: EIVMTQSPSTLSASVGDRVIITCQSSQSVYNNNLLAWYQQKPGKAPKLLIYYTSNLHSGVPSRFSGSGSGAEFTLTISSLQPDDFATYYCQGGYNGNIYAFGQGTKLTVL
notes: IgG
Regarding B13, the binding result is on record as “binds”.

B14: MYT10944 (antibody, V domains shown)
VH: EVQLVESGGGLVQPGGSLRLSCTASGFSLSNYVMNWVRQAPGKGLEWVGIIDSSGSTYYASWAKGRFTISRDTSKNTVYLQMNSLRAEDTAVYFCARGLYLWGQGTLVTVSS
VL: EIVMTQSPSTLSASVGDRVIITCQSSQSVYNNNLLAWYQQKPGKAPKLLIYYTSNLASGVPSRFSGSGSGAEFTLTISSLQPDDFATYYCQGGYNHNIYAFGQGTKLTVL
notes: IgG
On to B14, for which the binding result was “binds”.

B15: MYT10942 (antibody, V domains shown)
VH: EVQLVESGGGLVQPGGSLRLSCTASGFSLSNYVMNWVRQAPGKGLEWVGIIDSSGSTYYASWAKGRFTISRDTSKNTVYLQMNSLRAEDTAVYFCARGLYLWGQGTLVTVSS
VL: EIVMTQSPSTLSASVGDRVIITCQSSQSVYNNNLLAWYQQKPGKAPKLLIYYTSNLASGVPSRFSGSGSGAEFTLTISSLQPDDFATYYCQGGHNGNIYAFGQGTKLTVL
notes: IgG
For the molecule B15, the binding result was “binds”.

B16: MYT10939 (antibody, V domains shown)
VH: EVQLVESGGGLVQPGGSLRLSCTASGFSLSNYVMNWVRQAPGKGLEWVGIIDSSGSTYYASWAKGRFTISRDTSKNTVYLQMNSLRAEDTAVYFCARGLYLWGQGTLVTVSS
VL: EIVMTQSPSTLSASVGDRVIITCQSSQSVYNNNLLAWYQQKPGKAPKLLIYYTSNLASGVPSRFSGSGSGAEFTLTISSLQPDDFATYYCHGGYNGNIYAFGQGTKLTVL
notes: IgG
For the molecule B16, the binding result is on record as “binds”.

B17: MYT10949 (antibody, V domains shown)
VH: EVQLVESGGGLVQPGGSLRLSCTASGFSLSNYVMNWVRQAPGKGLEWVGIIDSSGSTYYASWAKGRFTISRDTSKNTVYLQMNSLRAEDTAVYFCARGLYLWGQGTLVTVSS
VL: EIVMTQSPSTLSASVGDRVIITCQSSQSVYNNNLLAWYQQKPGKAPKLLIYYTSNLASGVPSRFSGSGSGAEFTLTISSLQPDDFATYYCQGGYNGNIYAFGQGTKLEIK
notes: IgG
As for B17, the binding result was “binds”.

B18: MYT10943 (antibody, V domains shown)
VH: EVQLVESGGGLVQPGGSLRLSCTASGFSLSNYVMNWVRQAPGKGLEWVGIIDSSGSTYYASWAKGRFTISRDTSKNTVYLQMNSLRAEDTAVYFCARGLYLWGQGTLVTVSS
VL: EIVMTQSPSTLSASVGDRVIITCQSSQSVYNNNLLAWYQQKPGKAPKLLIYYTSNLASGVPSRFSGSGSGAEFTLTISSLQPDDFATYYCQGGYHGNIYAFGQGTKLTVL
notes: IgG
On to B18, for which the binding result is recorded as “binds”.

B19: MYT10946 (antibody, V domains shown)
VH: EVQLVESGGGLVQPGGSLRLSCTASGFSLSNYVMNWVRQAPGKGLEWVGIIDSSGSTYYASWAKGRFTISRDTSKNTVYLQMNSLRAEDTAVYFCARGLYLWGQGTLVTVSS
VL: EIVMTQSPSTLSASVGDRVIITCQSSQSVYNNNLLAWYQQKPGKAPKLLIYYTSNLASGVPSRFSGSGSGAEFTLTISSLQPDDFATYYCQGGYNGNHYAFGQGTKLTVL
notes: IgG
B19: the binding result is “binds”.
